Experimental data published in article PMC10716581, “Fanconi anemia-associated mutation in RAD51 compromises the coordinated action of DNA-binding and ATPase activities”.

Target: RAD51-Q242R (human, UniProt Q06609 1-339, Q242R)
Experiment: EMSA; 2 mM ATP, 10 mM Mg2+; 20 mM Hepes-NaOH pH 7.5, 0.1 mg/ml BSA, 1 mM DTT, 10 mM MgCl2, 150 mM KCl, 2 mM ATP or AMP-PNP or no nucleotide, 2.7 uM (nt) DNA, 37 C 10 min; 8% native PAGE in 1x TBE
Settings: protein: recombinant; tags: N-terminal His-tag removed with thrombin; chain copies: 8; label: 5'-Cy5 on strand 1; blunt

RAD51-Q242R, sequence (Q06609 whole entry Q242R): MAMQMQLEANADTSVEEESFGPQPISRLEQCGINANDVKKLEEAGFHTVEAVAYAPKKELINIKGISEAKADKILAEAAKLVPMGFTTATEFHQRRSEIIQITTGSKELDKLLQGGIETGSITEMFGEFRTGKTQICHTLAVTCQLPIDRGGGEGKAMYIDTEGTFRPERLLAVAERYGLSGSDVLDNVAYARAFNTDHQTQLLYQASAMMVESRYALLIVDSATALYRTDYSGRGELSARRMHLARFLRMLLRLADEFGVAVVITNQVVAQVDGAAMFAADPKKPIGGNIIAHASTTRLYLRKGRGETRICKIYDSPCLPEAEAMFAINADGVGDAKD

B1: Cy5-OL4/OL5 40-mer (dsDNA)
DNA 1: TAATACAAAATAAGTAAATGAATAAACAGAGAAAATAAAG
DNA 2: CTTTATTTTCTCTGTTTATTCATTTACTTATTTTGTATTA
binding result: binds
